Key:
[1] = biological target: H1N1 hemagglutinin (Cat No.: Z03181, GenScript), full-length recombinant HA (His-Tag) (influenza A virus H1N1 (strain not stated)); experiment: SPR
[2] = biological target: H1N1 hemagglutinin (Cat No.: Z03181, GenScript), full-length recombinant HA (His-Tag) (influenza A virus H1N1 (strain not stated)); experiment: MST; fluorescently labelled His-HA (NT647-HA) held constant, peptide in 16 1:1 serial dilutions from 50 µM; assay buffer PBS; 10 min incubation at rt; standard-treated capillaries; high MST power, 10% LED power; Monolith NT.115pico; triplicate
[3] = biological target: H1N1 hemagglutinin (Cat No.: Z03181, GenScript), full-length recombinant HA (His-Tag) (influenza A virus H1N1 (strain not stated)); experiment: SPR; remark: listed apart in the source

## Ac-SKHA-NH2 [peptide 6 (Ac-SKHA-NH2)]
[1]
  Kd: 6750 nM
[2]
  Kd: 11400 nM

## Ac-ALDC-NH2 [peptide 7 (Ac-ALDC-NH2)]
[1]
  Kd: 27.7 nM
[2]
  Kd: 21200 nM

## Ac-AKHS-NH2 [peptide 3 (Ac-AKHS-NH2)]
[1]
  Kd: 2700 nM
[2]
  Kd: 3120 nM

## Ac-SAHS-NH2 [peptide 4 (Ac-SAHS-NH2)]
[1]
  Kd: 3.5 nM
[2]
  Kd: 8.2 nM
[3]
  Kd: 3.57 nM

## Ac-SLAC-NH2 [peptide 9 (Ac-SLAC-NH2)]
[1]
  Kd: 2570 nM
[2]
  Kd: 5.8 nM

## Ac-SKAS-NH2 [peptide 5 (Ac-SKAS-NH2)]
[1]
  Kd: 1030 nM
[2]
  Kd: 7010 nM

## Ac-SADC-NH2 [peptide 8 (Ac-SADC-NH2)]
[1]
  Kd: 2190 nM
[2]
  Kd: 6380 nM

## Ac-SLDA-NH2 [peptide 10 (Ac-SLDA-NH2)]
[1]
  Kd: 343 nM
[2]
  Kd: 2690 nM

— publication PMC8537277 (Pharmaceuticals, 2021)
